Source: patent publication US20150266922A1

Tests used:
[1] = target: Dipeptidyl peptidase 9 (DPP9), recombinant wild-type (human) (UniProt Q86TI2); test: enzyme kinetics, GP-AMC hydrolysis by 25 nM recombinant DPP9 with 0, 5 or 20 µM peptide
[2] = target: Dipeptidyl peptidase 9 (DPP9), recombinant wild-type (human) (UniProt Q86TI2); test: cell-based or functional assay
[3] = target: Dipeptidyl peptidase 9 (DPP9), recombinant wild-type (human) (UniProt Q86TI2); test: enzyme kinetics, GP-AMC hydrolysis by recombinant DPP9
[4] = target: Dipeptidyl peptidase 9 (DPP9), recombinant wild-type (human) (UniProt Q86TI2); test: ratio of Ki values for DPP9, reference EIL peptide
[5] = target: Dipeptidyl peptidase 8 (DPP8), recombinant (human) (UniProt Q6V1X1); test: enzyme kinetics, GP-AMC hydrolysis by recombinant DPP8
Chain of Dipeptidyl peptidase 8 (DPP8), recombinant (human) (Q6V1X1 whole entry, form in doubt): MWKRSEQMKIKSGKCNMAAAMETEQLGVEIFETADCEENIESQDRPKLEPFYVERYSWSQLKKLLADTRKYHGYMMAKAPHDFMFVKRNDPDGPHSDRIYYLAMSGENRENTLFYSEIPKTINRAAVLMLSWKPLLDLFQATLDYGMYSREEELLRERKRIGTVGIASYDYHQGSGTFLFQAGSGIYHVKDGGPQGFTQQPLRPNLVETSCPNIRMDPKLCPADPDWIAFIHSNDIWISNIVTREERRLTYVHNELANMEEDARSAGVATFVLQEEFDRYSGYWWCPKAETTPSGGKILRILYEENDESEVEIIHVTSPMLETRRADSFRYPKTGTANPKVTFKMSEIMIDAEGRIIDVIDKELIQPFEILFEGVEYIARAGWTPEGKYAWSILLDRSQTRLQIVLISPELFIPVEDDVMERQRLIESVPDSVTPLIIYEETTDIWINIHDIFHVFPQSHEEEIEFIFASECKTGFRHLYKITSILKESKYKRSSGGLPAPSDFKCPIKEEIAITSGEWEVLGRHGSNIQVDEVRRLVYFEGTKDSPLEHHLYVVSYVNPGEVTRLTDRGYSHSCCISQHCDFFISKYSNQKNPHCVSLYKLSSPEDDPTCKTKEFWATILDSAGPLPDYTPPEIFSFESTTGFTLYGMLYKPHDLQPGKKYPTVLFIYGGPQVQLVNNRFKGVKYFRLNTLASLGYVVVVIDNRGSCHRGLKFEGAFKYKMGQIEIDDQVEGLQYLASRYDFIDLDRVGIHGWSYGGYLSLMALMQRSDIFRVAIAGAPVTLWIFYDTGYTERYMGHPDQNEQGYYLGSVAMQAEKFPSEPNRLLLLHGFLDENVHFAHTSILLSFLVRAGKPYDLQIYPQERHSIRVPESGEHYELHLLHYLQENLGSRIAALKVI

[6] = target: Dipeptidyl peptidase 8 (DPP8), recombinant (human) (UniProt Q6V1X1); test: ratio of Ki values, DPP8 against DPP9
[7] = target: Dipeptidyl peptidase 8 (DPP8), recombinant (human) (UniProt Q6V1X1); test: cell-based or functional assay

Chain of Dipeptidyl peptidase 9 (DPP9), recombinant wild-type (human) (Q86TI2 other isoform, or with tags, fused parts or gaps limits assumed, form in doubt): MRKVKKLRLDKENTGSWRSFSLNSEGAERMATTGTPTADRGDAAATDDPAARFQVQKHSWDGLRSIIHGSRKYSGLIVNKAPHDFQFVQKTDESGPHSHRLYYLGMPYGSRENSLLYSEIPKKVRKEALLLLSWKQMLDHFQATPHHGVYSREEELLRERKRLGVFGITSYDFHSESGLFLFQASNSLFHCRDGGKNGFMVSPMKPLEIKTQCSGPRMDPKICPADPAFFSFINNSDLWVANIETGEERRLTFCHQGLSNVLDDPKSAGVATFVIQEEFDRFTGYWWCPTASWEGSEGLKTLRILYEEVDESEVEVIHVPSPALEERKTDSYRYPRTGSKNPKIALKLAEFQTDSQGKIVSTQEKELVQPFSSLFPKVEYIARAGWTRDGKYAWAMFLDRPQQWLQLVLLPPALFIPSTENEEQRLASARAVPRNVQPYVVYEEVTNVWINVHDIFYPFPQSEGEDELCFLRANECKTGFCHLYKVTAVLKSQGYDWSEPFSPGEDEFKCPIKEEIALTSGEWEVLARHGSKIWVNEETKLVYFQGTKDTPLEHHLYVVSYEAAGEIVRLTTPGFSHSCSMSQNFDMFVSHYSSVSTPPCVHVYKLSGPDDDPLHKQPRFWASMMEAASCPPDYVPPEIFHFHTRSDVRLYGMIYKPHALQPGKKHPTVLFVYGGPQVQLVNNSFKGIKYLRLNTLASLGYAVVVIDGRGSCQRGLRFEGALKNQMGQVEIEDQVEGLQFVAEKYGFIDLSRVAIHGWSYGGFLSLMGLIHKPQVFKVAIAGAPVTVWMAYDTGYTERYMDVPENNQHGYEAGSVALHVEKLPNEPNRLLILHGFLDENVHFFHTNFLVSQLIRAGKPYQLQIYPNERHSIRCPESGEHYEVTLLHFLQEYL

Substance: SLRFLFEG (SEQ ID NO: 37) (peptide)
- Ki [1]: 2000 nM
- % DPP9 activity (Mean), 10 µM peptide [2]: 24.1%

Substance: SLRFLYEG (SEQ ID NO: 38) (peptide)
- Ki [3]: 400 nM
- fold increased efficiency compared to the EIL peptide [4]: 18.5 fold
- % DPP9 activity (Mean), 10 µM peptide [2]: 10.9%
- Ki [5]: 3600 nM
- fold lower affinity compared to DPP9 [6]: 9 fold

Substance: SUMO1 (from UniProt P63165 1-97)
- AMC release from GP-AMC in the unbound fraction (depleted lysates) [7]: 40%
- AMC release from GP-AMC in the unbound fraction (depleted lysates) [2]: 40%
